Test [1] addresses HRP conjugated human C1q (human) (UniProt P02745). Kind of test: ELISA, antibody coated on the plate, HRP conjugated human C1q. (In general: An ELISA detects its analyte on a solid surface through an enzyme-linked reagent.)
Test [2] concerns the target C1q in the complement system (rabbit serum as the source of complement) (rabbit). The test can be described thus: cell-based or functional assay.
Test [3] deals with FcγIIIA Receptor on the effector cells (human) (UniProt P08637). The test can be described thus: cell-based or functional assay.
The target of test [4] is FcγRIIIa 158F receptor (SPR assay) (UniProt P08637). The test can be described thus: SPR, receptor amine-coupled to the chip, antibody injected, steady state affinity. On the technique in general: SPR reads the build-up and loss of mass on a sensor chip optically.
Test [5] deals with FcγRIIIa 158V receptor (SPR assay) (UniProt P08637). Kind of test: SPR, receptor amine-coupled to the chip, antibody injected, 1:1 kinetics.
Test [6] has as its target FcγRI (human Fc receptor panel, Octet) (human) (UniProt P12314). The test can be described thus: BLI (Octet HTX), receptor on anti-penta-His biosensor, 1:1 model.
The target of test [7] is FcRn (human Fc receptor panel, Octet) (human) (UniProt P55899). The description is as above.
The target in test [8] is FcγRIIIA F158 (human Fc receptor panel, Octet) (human) (UniProt P08637). Described as above.
Test [9] concerns the target FcγRIIIA V158 (human Fc receptor panel, Octet) (human) (UniProt P08637). Described as above.
Test [10] has as its target FcγRIIA (human Fc receptor panel, Octet) (human) (UniProt P12318). The test is described as above.
In test [11] the target is FcγRIIIB (human Fc receptor panel, Octet) (human) (UniProt O75015). The description is as above.
In test [12] the target is FcγRIIB/C (human Fc receptor panel, Octet) (human) (UniProt P31994). The description is as above.
Test [13] concerns the target CD20 on Jeko-1, Raji and Daudi cells (human) (UniProt P11836). Kind of test: cell-based MSD electrochemiluminescence binding assay on CD20 expressing Jeko-1 cells.
The target in test [14] is FcγRIIIa 158V receptor (SPR assay) (UniProt P08637). Kind of test: SPR, relative to the TG-1101 reference standard.
Test [15] concerns the target FcγRIIIa 158F receptor (SPR assay) (UniProt P08637). Kind of test: SPR, relative to the TG-1101 reference standard.

Sequence of FcγRIIIB (human Fc receptor panel, Octet) (human) (O75015 17-200 limits assumed): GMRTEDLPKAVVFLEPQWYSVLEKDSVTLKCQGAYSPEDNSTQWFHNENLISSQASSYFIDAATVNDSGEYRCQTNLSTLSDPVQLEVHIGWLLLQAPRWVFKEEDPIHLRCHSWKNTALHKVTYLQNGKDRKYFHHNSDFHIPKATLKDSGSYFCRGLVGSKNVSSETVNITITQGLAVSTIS
Sequence of FcγRIIA (human Fc receptor panel, Octet) (human) (P12318 36-218 limits assumed): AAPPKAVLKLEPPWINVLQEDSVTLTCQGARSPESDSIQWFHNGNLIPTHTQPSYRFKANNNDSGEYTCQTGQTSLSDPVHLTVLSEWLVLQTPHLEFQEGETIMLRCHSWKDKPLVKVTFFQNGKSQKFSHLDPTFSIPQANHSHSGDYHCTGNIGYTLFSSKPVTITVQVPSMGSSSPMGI
Sequence of FcγIIIA Receptor on the effector cells (human) (P08637 17-254): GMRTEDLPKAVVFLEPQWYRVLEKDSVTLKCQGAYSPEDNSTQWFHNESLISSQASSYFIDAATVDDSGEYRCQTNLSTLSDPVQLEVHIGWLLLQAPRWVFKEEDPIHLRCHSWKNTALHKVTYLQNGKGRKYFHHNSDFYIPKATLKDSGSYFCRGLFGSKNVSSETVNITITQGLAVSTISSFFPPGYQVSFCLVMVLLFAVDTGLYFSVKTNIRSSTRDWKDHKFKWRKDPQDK
Sequence of CD20 on Jeko-1, Raji and Daudi cells (human) (P11836 whole entry): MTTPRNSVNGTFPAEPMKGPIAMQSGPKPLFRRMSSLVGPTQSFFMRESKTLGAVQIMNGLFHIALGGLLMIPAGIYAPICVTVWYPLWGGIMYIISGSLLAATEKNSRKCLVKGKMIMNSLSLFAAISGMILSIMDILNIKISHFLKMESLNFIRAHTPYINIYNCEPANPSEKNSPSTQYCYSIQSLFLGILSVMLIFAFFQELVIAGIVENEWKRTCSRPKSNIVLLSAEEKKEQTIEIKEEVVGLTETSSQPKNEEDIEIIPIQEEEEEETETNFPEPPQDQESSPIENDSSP
Sequence of FcγRIIIA F158 (human Fc receptor panel, Octet) (human) (P08637 17-208 limits assumed): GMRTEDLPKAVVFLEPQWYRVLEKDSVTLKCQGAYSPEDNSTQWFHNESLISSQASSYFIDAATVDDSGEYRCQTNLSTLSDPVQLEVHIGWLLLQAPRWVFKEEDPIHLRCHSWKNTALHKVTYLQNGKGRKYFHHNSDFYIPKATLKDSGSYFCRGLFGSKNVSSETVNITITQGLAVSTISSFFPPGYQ
Sequence of FcγRIIIa 158F receptor (SPR assay) (P08637 17-208 limits assumed): as above
Sequence of FcγRIIIa 158V receptor (SPR assay) (P08637 17-208 F176V limits assumed): as the sequence (P08637 17-208 limits assumed) above, with F160V counted along it
Sequence of FcγRIIIA V158 (human Fc receptor panel, Octet) (human) (P08637 17-208 F176V limits assumed): as the sequence (P08637 17-208 limits assumed) above, with F160V counted along it
Sequence of FcγRI (human Fc receptor panel, Octet) (human) (P12314 16-288 limits assumed): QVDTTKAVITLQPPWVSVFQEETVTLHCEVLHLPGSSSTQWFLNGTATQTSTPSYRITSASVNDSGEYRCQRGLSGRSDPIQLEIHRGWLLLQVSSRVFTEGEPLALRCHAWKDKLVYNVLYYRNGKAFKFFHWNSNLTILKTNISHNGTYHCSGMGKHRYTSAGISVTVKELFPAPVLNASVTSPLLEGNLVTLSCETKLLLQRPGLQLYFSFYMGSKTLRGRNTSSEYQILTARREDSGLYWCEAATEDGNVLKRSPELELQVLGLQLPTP
Sequence of FcRn (human Fc receptor panel, Octet) (human) (P55899 24-297 limits assumed, chain 1 of 2): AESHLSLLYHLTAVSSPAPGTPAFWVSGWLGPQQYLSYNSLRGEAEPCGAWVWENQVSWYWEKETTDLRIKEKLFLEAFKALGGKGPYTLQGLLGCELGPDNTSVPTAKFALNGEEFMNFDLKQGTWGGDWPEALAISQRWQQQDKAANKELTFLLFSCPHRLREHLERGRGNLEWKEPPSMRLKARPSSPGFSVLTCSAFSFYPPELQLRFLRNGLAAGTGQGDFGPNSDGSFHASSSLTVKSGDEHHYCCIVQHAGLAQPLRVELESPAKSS
Sequence of FcRn (human Fc receptor panel, Octet) (human) (P61769 21-119 limits assumed, chain 2 of 2, further chain): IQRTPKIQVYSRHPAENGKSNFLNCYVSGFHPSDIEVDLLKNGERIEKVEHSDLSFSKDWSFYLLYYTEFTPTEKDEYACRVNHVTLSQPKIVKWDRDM
Sequence of FcγRIIB/C (human Fc receptor panel, Octet) (human) (P31994 46-217 limits assumed): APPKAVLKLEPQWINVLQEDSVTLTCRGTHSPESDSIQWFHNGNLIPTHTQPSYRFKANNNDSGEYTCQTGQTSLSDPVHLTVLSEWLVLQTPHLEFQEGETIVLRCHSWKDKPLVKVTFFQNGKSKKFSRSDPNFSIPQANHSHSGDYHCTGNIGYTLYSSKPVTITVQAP
Sequence of HRP conjugated human C1q (human) (P02745 23-245 limits assumed, chain 1 of 3): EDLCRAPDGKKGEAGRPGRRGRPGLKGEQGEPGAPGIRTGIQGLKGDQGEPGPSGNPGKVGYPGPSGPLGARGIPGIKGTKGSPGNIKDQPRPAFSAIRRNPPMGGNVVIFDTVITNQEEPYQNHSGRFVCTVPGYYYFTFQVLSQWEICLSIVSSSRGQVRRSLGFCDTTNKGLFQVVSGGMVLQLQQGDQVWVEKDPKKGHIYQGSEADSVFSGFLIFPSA
Sequence of HRP conjugated human C1q (human) (P02746 28-253 limits assumed, chain 2 of 3, further chain): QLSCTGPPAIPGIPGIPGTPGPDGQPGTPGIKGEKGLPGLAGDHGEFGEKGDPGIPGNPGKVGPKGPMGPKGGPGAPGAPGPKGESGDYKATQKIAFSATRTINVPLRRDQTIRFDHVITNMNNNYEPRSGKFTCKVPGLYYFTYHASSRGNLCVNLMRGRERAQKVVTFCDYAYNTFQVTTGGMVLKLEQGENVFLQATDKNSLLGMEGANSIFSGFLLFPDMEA
Sequence of HRP conjugated human C1q (human) (P02747 29-245 limits assumed, chain 3 of 3, further chain): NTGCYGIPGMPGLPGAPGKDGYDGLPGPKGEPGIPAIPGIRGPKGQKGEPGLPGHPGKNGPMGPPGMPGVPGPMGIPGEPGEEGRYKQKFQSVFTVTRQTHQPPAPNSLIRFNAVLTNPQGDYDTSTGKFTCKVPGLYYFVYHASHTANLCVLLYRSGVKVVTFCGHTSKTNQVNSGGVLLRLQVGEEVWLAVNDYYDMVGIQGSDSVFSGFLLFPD

As a reminder, the EC50 is the concentration needed to bring the measured effect to its halfway point. Read a high EC50 as weaker potency. A word on the Kd: it is the equilibrium constant for the complex coming apart. A low value points to higher affinity. Consider OCREVUS (ocrelizumab) (antibody), for which the EC50 in test [1] turned out to be 2.9 µg/mL. The CDC EC50 (Jeko-1 cells, rabbit serum complement) in [2] turned out to be 1.21 µg/mL. Further, the ADCC EC50 (Raji target cells, KILR CD16a effector cells) in test [3] amounted to 0.0608 ng/mL. In addition, the dissociation constant Kd in test [4] was determined as 6.76 µM; in test [5] it was 1.03 µM; in [6] it was 0.019 µM; in test [7], 0.062 µM; in test [8], 0.592 µM; in [9] it was 0.138 µM. Besides, the Kd amounted to 0.624 µM in test [10], 2.09 µM in [11] and 0.362 µM in [12].

In turn, RITUXAN (rituximab) (antibody) came in with a CDC EC50 (Jeko-1 cells, rabbit serum complement) in [2] of 0.245 µg/mL. In [3], this substance yielded an ADCC EC50 (Raji target cells, KILR CD16a effector cells) of 5.46 ng/mL. The substance further came in with an EC50 of ADCC assay Using Primary NK Cells (Raji target cells, LDH release) in test [3] of 1390 µg/mL. Further, the EC50 in test [13] was found to be 0.133 µg/mL. For the same substance, the Kd came to 6.96 µM in test [4]; 1.2 µM in test [5]; 0.015 µM in [6]; 0.043 µM in [7]; 0.253 µM in [10]; 0.309 µM in test [11]. In test [12], the dissociation constant Kd was determined as 0.211 µM.

As for ARZERRA (ofatumumab) (antibody), the CDC EC50 (Jeko-1 cells, rabbit serum complement) in test [2] stood at 0.353 µg/mL. In [3], the ADCC EC50 (Raji target cells, KILR CD16a effector cells) was found to be 0.0741 ng/mL. Further, the EC50 of ADCC assay Using Primary NK Cells (Raji target cells, LDH release) in [3] was 500 µg/mL. The same substance yielded a concentration giving a half-maximal response (EC50) in [13] of 0.092 µg/mL. Moreover, the dissociation constant Kd in test [4] worked out at 14.8 µM; in test [5], 1.64 µM; in test [6], 0.021 µM; in [7], 0.064 µM; in test [8] it was 0.482 µM; in test [9] it was 0.207 µM. The equilibrium dissociation constant (Kd) in [10] is 0.232 µM; in test [11], 0.307 µM; in [12], 0.156 µM.

As to GAZYVA (obinutuzumab) (antibody), the Relative Affinity (%) in test [14] came out at 27.6%; in [15], 37.6%. Besides, the values for the Relative Binding (%) in test [14] and in [15] were 19.6% and 33%, respectively. For the same substance, the ADCC EC50 (Raji target cells, KILR CD16a effector cells) in test [3] is 0.00658 ng/mL. For the same substance, the EC50 of ADCC assay Using Primary NK Cells (Raji target cells, LDH release) in [3] was found to be 19 µg/mL. This substance displayed an EC50 in test [13] of 0.053 µg/mL. In addition, the Kd in test [4] was 1.79 µM; in test [5] it was 0.242 µM; in test [6], 0.026 µM; in test [7], 0.039 µM; in test [8] it was 0.098 µM; in test [9], 0.04 µM. Moreover, the results for the Kd in test [10], in test [11] and in test [12] were 0.281 µM, 0.277 µM and 0.225 µM, respectively.

For the origin of these results see patent US11965032.
